# Experimental data taken from publication PMC4569481, “Pseudomonas aeruginosa Uses Dihydrolipoamide Dehydrogenase (Lpd) to Bind to the Human Terminal Pathway Regulators Vitronectin and Clusterin to Inhibit Terminal Pathway Complement Attack” (PLoS ONE, 2015).
# B1: Lpd deletion mutant Lpd^1-287 (domain or fragment, P. aeruginosa strain PAO1, UniProt Q9I3D1 1-287, looked up)
# chain: MSQKFDVVVIGAGPGGYVAAIRAAQLGLKTACIEKYIGKEGKVALGGTCLNVGCIPSKALLDSSYKYHEAKEAFKVHGIEAKGVTIDVPAMVARKANIVKNLTGGIATLFKANGVTSFEGHGKLLANKQVEVTGLDGKTQVLEAENVIIASGSRPVEIPPAPLTDDIIVDSTGALEFQAVPKKLGVIGAGVIGLELGSVWARLGAEVTVLEALDKFLPAADEQIAKEALKVLTKQGLNIRLGARVTASEVKKKQVTVTFTDANGEQKETFDKLIVAVGRRPVTTDLL
# notes: Dihydrolipoamide dehydrogenase (Lpd), P. aeruginosa strain PAO1, residues 1-287; also called Lpd^1-287: 37 kDa
# B2: Dihydrolipoamide dehydrogenase (Lpd) of P. aeruginosa, recombinant full length (Lpd^1-478) (natural protein)
# chain: MSQKFDVVVIGAGPGGYVAAIRAAQLGLKTACIEKYIGKEGKVALGGTCLNVGCIPSKALLDSSYKYHEAKEAFKVHGIEAKGVTIDVPAMVARKANIVKNLTGGIATLFKANGVTSFEGHGKLLANKQVEVTGLDGKTQVLEAENVIIASGSRPVEIPPAPLTDDIIVDSTGALEFQAVPKKLGVIGAGVIGLELGSVWARLGAEVTVLEALDKFLPAADEQIAKEALKVLTKQGLNIRLGARVTASEVKKKQVTVTFTDANGEQKETFDKLIVAVGRRPVTTDLLAADSGVTLDERGFIYVDDHCKTSVPGVFAIGDVVRGAMLAHKASEEGVMVAERIAGHKAQMNYDLIPSVIYTHPEIAWVGKTEQTLKAEGVEVNVGTFPFAASGRAMAANDTTGLVKVIADAKTDRVLGVHVIGPSAAELVQQGAIGMEFGTSAEDLGMMVFSHPTLSEALHEAALAVNGHAIHIANRKKR
# notes: On the gel two bands, 57 and 50 kDa
# B3: vitronectin, monomeric, purified from human plasma (natural protein)
# chain: DQESCKGRCTEGFNVDKKCQCDELCSYYQSCCTDYTAECKPQVTRGDVFTMPEDEYTVYDDGEEKNNATVHEQVGGPSLTSDLQAQSKGNPEQTPVLKPEEEAPAPEVGASKPEGIDSRPETLHPGRPQPPAEEELCSGKPFDAFTDLKNGSLFAFRGQYCYELDEKAVRPGYPKLIRDVWGIEGPIDAAFTRINCQGKTYLFKGSQYWRFEDGVLDPDYPRNISDGFDGIPDNVDAALALPAHSYSGRERVYFFKGKQYWEYQFQHQPSQEECEGSSLSAVFEHFAMMQRDSWEDIFELLFWGRTSAGTRQPQFISRDWHGVPGQVDAAMAGRIYISGMAPRPSLAKKQRFRHRNRKGYRSQRGHSRGRNQNSRRPSRATWLSLFSSEESNLGANNYDDYRMDWLVPATCEPIQSVFFFSGDKYYRVNLRTRRVDTVDPPYPRSIAQYWLGCPAPGHL
# notes: vitronectin, human, purified from plasma; In the MST experiment labelled with NT-647 RED-NHS; Plasma vitronectin circulates as variants of 75 and 65 kDa; also called Vn; full-length vitronectin; source: bought: Corning, purified from human plasma
# B4: clusterin, purified from human plasma (natural protein)
# chain 1: DQTVSDNELQEMSNQGSKYVNKEIQNAVNGVKQIKTLIEKTNEERKTLLSNLEEAKKKKEDALNETRESETKLKELPGVCNETMMALWEECKPCLKQTCMKFYARVCRSGSGLVGRQLEEFLNQSSPFYFWMNGDRIDSLLENDRQQTHMLDVMQDHFSRASSIIDELFQDRFFTREPQDTYHYLPFSLPHRRPHFFFPKSRIVR
# chain 2: SLMPFSPYEPLNFHAMFQPFLEMIHEAQQAMDIHFHSPAFQHPPTEFIREGDDDRTVCREIRHNSTGCLRMKDQCDKCREILSVDCSTNNPSQAKLRRELDESLQVAERLTRKYNELLKSYQWKMLNTSSLLEQLNEQFNWVSRLANLTQGEDQYYLRVTTVASHTSDSDVPSGVTEVVVKLFDSDPITVTVPVEVSRKNPKFMETVAEKALQEYRKKHREE
# notes: Disulfide-linked heterodimer of one alpha and one beta chain of 40 kDa each; In the MST experiment labelled with NT-647 RED-NHS; source: bought: BioVision, purified from human plasma; copies: 1 + 1
# B5: Lpd deletion mutant Lpd^1-382 (domain or fragment, P. aeruginosa strain PAO1, UniProt Q9I3D1 1-382, looked up)
# chain: MSQKFDVVVIGAGPGGYVAAIRAAQLGLKTACIEKYIGKEGKVALGGTCLNVGCIPSKALLDSSYKYHEAKEAFKVHGIEAKGVTIDVPAMVARKANIVKNLTGGIATLFKANGVTSFEGHGKLLANKQVEVTGLDGKTQVLEAENVIIASGSRPVEIPPAPLTDDIIVDSTGALEFQAVPKKLGVIGAGVIGLELGSVWARLGAEVTVLEALDKFLPAADEQIAKEALKVLTKQGLNIRLGARVTASEVKKKQVTVTFTDANGEQKETFDKLIVAVGRRPVTTDLLAADSGVTLDERGFIYVDDHCKTSVPGVFAIGDVVRGAMLAHKASEEGVMVAERIAGHKAQMNYDLIPSVIYTHPEIAWVGKTEQTLKAEGVEVNV
# notes: Dihydrolipoamide dehydrogenase (Lpd), P. aeruginosa strain PAO1, residues 1-382; also called Lpd^1-382: 53 kDa
# Tests used:
# Details in all cases: both partners purified
# [1] = biological target: B3; assay: ELISA; equimolar amounts (13.3 nM) of full length Lpd and Lpd deletion mutants immobilized on microtiter plates; vitronectin or clusterin added; bound ligand quantified with antibodies
# Factor H = biological target: T1, Factor H (human, UniProt P08603 19-1231); assay: ELISA; two human ligands added together to immobilized Lpd, one at a constant concentration (vitronectin 5 μg/ml, clusterin 2.5 μg/ml, Factor H 5 μg/ml or plasminogen 5 μg/ml), the other at increasing concentrations; each detected with its own antibody
# T1 construct: complement Factor H, human; source: bought: Complement Technology
# [2] = biological target: B2; assay: MST; fluid phase; NT-647-labeled vitronectin (50 nM) or clusterin (25 nM) mixed with Lpd in 1:2 dilutions (0.001 to 50 μM); 50 mM Tris-HCl pH 7.6, 150 mM NaCl, 10 mM MgCl2, 0.05% Tween-20; RT; 50% LED power, 80% MST power
# [3] = biological target: B2; assay: ELISA; two human ligands added together to immobilized Lpd, one at a constant concentration (vitronectin 5 μg/ml, clusterin 2.5 μg/ml, Factor H 5 μg/ml or plasminogen 5 μg/ml), the other at increasing concentrations; each detected with its own antibody
# [4] = biological target: Lpd deletion mutant Lpd^141-478 (P. aeruginosa strain PAO1, UniProt Q9I3D1 141-478); assay: ELISA; equimolar amounts (13.3 nM) of full length Lpd and Lpd deletion mutants immobilized on microtiter plates; vitronectin or clusterin added; bound ligand quantified with antibodies
# [5] = biological target: Lpd deletion mutant Lpd^264-478 (P. aeruginosa strain PAO1, UniProt Q9I3D1 264-478); assay: as above
# [6] = biological target: T2, Lpd deletion mutant Lpd^1-160 (P. aeruginosa strain PAO1, UniProt Q9I3D1 1-160); assay: as above
# T2 construct: Dihydrolipoamide dehydrogenase (Lpd), P. aeruginosa strain PAO1, residues 1-160; also called Lpd^1-160: 20 kDa; N-terminal Lpd^1-160
# [7] = biological target: B4; assay: as above
# T1 sequence (P08603 19-1231): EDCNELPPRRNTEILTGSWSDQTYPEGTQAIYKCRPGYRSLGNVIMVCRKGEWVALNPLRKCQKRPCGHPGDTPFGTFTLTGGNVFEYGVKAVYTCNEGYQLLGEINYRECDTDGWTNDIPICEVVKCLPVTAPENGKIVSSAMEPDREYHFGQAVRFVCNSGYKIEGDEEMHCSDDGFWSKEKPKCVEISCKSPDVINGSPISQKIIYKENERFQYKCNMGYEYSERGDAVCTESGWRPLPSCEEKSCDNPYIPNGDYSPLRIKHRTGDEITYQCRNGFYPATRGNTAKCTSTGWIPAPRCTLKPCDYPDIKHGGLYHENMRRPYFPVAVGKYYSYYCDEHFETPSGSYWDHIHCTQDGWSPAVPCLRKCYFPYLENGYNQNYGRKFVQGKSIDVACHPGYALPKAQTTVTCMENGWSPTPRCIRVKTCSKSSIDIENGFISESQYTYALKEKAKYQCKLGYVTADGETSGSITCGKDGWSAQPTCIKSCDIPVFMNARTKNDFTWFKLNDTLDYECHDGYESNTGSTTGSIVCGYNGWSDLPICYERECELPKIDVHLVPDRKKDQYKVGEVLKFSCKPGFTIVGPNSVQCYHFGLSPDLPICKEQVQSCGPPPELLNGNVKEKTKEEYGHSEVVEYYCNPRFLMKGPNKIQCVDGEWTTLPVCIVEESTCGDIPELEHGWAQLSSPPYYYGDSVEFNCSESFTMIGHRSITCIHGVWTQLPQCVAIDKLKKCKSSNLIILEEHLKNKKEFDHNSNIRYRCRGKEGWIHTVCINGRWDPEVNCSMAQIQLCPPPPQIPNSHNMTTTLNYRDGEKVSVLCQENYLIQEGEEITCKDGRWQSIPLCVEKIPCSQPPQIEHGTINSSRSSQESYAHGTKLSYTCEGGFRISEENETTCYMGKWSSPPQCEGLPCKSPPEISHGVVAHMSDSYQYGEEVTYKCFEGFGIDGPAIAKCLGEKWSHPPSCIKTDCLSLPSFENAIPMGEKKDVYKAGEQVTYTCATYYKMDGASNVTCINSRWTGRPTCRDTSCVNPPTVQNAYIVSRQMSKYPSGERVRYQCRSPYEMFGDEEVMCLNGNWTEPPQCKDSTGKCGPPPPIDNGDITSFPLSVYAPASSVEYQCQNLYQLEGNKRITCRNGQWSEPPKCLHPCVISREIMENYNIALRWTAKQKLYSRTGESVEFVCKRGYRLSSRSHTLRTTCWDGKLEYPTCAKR
binder,measurement,setting,value
B1,binding result,[1],binds
B2,binding result,Factor H,binds
B3,Kd,[2],600 ± 50 nM
same,percent reduction of Factor H binding to Lpd by vitronectin at four-fold molar excess,[3],37%
same,percent reduction of binding (ELISA signal),[4],47%
same,percent reduction of binding (ELISA signal),[5],47%
same,percent reduction of binding (ELISA signal),[6],51%
B4,Kd,[2],654 ± 54 nM
B5,binding result,[1],binds
same,binding result,[7],binds
